Source: paper doi:10.1101/2022.11.01.514793

How the values were obtained:
AdgH (Variovorax) [1] = test: cryo-EM structure
AdgH (Variovorax) [2] = test: SEC
AdgI (Variovorax) = test: cryo-EM structure

AdgH (enzyme)
stoichiometry N (AdgH (Variovorax) [1]): 3

AdgI (enzyme)
stoichiometry N (AdgI:AdgH molar ratio) (AdgH (Variovorax) [2]): 1
stoichiometry N (AdgI (Variovorax)): 3
